Experimental data: the DeepSol protein solubility set

Assay: soluble on expression in E. coli; label from the status in PepcDB or PDB records

Row | Sequence | soluble on expression in E. coli
1 | MTGGTGADAASAGASSTRPELRGERCLPPAGPVKVTPDDPRYLNLKLRGANSRFNGEPDYIHLVGSTQQVADAVEETVRTGKRVAVRSGGHCFEDFVDNPDVKVIIDMSLLTEIAYDPSMNAFLIEPGNTLSEVYEKLYLGWNVTIPGGVCGGVGVGGHICGGGYGPLSRQFGSVVDYLYAVEVVVVNKQGKARVIVATRERDDPHHDLWWAHTGGGGGNFGVVTKYWMRVPEDVGRNPERLLPKPPATLLTSTVTFDWAGMTEAAFSRLLRNHGEWYERNSGPDSPYTGLWSQLMIGNEVPGMGESGFMMPIQVDATRPDARRLLDAHIEAVIDGVPPAEVPEPIEQRWLASTPGRGGRGPASKTKAGYLRKRLTDRQIQAVYENMTHMDGIDYGAVWLIGYGGKVNTVDPAATALPQRDAILKVNYITGWANPGNEAKHLTWVRKLYADVYAETGGVPVPNDVSDGAYINYPDSDLADPGLNTSGVPWHDLYYKGNHPRLRKVKAAYDPRNHFHHALSIRP | soluble
2 | MIRSMTAYARREIKGEWGSATWEMRSVNQRYLETYFRLPEQFRSLEPVVRERIRSRLTRGKVECTLRYEPDVSAQGELILNEKLAKQLVTAANWVKMKSDEGEINPVDILRWPGVMAAQEQDLDAIAAEILAALDGTLDDFIVARETEGQALKALIEQRLEGVTAEVVKVRAHMPEILQWQRERLVAKLEDAQVQLENNRLEQELVLLAQRIDVAEELDRLEAHVKETYNILKKKEAVGRRLDFMMQEFNRESNTLASKSINAEVTNSAIELKVLIEQMREQIQNIE | not soluble
3 | MKYIDCAVIGAGPAGLNASLVLGRARKQIALFDNNTNRNRVTQNSHGFITRDGIKPEEFKEIGLNEVMKYPSVHYYEKTVVMITKQSTGLFEIVTKDHTKYLAERVLLATGMQEEFPSIPNVREYYGKSLFSCPYCDGWELKDQPLIIISENEDHTLHMTKLVYNWSTDLVIATNGNELSQTIMDELSNKNIPVITESIRTLQGEGGYLKKVEFHSGLRIERAGGFIVPTFFRPNQFIEQLGCELQSNGTFVIDDFGRTSEKNIYLAGETTTQGPSSLIIAASQGNKAAIAINSDITDERF | soluble
4 | MGSDKIHHHHHHMRKISIVIPVYNTEKYLKLSVDSVLSQSYQDWELILVDDGSKDGSGAICDKYASEDSRIKVYHTVNQGVTAARGYGVEQSTGEWICFLDADDTLADDALQVMLGKSADCDIVIGNKRIVSGNDVTEEWMNQDDRQLQAVEFLDGLIRNKISQYITGRIFRRILFDNGTICIPRELIMAEDFIMNVQLGNKAKKIAVIRDMVYGYHVYGESVSHTFRTNLEYESRFCDCLFSALKTGGYYEEVKEAFTFQKVRALKSAFMAQQGRVNLRHPFLQEVRKEAKSIGLSRGWKLFLYLLPLKYIGYIFFRSLNK | not soluble
5 | MGSDKIHHHHHHMSEKRQPWVQDLLWRLEALGFDLFIGAVRMMGVDRASDFGGWLGRTFGPMSGAHKVASRNLKLAFPDKDAAWHETILREQWDGLGRSFAEFPLMDKILPSTGRVEVVGKERLVEIAENRIPVVFVSGHLSNWEVMPAAIVDSGVICEMTYRAANNPYVDKRIKESRFRYGVRLFAPKGGDGARELLEGMKQGKSVALMNDQKFNSGVAAPFFGHLAHTAPGPTRLAIRFGTVLQPMSVQRLKGARFRAVVHDPIVPPKTGDRTADIEAGVRMINAFMEDRIRERPAEWFWVHRRWPNEVYAALAERERAAESSS | not soluble
6 | MGSDKIHHHHHHMVVSIGVFDGVHIGHQKVLRTMKEIAFFRKDDSLIYTISYPPEYFLPDFPGLLMTVESRVEMLSRYARTVVLDFFRIKDLTPEGFVERYLSGVSAVVVGRDFRFGKNASGNASFLRKKGVEVYEIEDVVVQGKRVSSSLIRNLVQEGRVEEIPAYLGRYFEIEGIVHKDREFGRKLGFPTANIDRGNEKLVDLKRGVYLVRVHLPDGKKKFGVMNVGFRPTVGDARNVKYEVYILDFEGDLYGQRLKLEVLKFMRDEKKFDSIEELKAAIDQDVKSARNMIDDIINSKFEKEG | not soluble
7 | MRSLARGVTTNISKLIEARPKNTGQTVYLTHVKWVTGKSQLEHYFKRYGSIQSVNMFYDPDTGLHRGFASITFDSKDGANKAIEQRPHVIDGDRVDVEPYIPLISKNKKKDLML | not soluble
8 | MIDGAEVSVSRGKNNPFYFNSDRWFHTLFRNQFGHLRVLQRFDQRSKQMQNLENYRVVEFNSKPNTLLLPHHADADFLLVVLNGRAVLTLVNPDGRDSNILEQGHAQKIPAGTTFFLVNPDDEENLRIIKLAVPVNNPHRFQDFFLSSTEAQQSYLQGFSKNILEASFDSDIKEISRVLFGEEGQQQQQGQESQQEGVIVELKREQIRELTKHAKSSSKKSLSSEDQPFNLRNQKPIYSNKLGRWFEITPEKNPQLRDLDMFIRSVDMKEGSLLLPHYNSKAIVILVINEGKANIELVGQREQQKQQEEQEESWEVQRYRAELSEDDVFIIPATYPVAINATSNLNFFAFGINAENNQRNFLAGEKDNVISEIPTEVLDVTFPASGEKVQKLIKKQSESQFVDAQPEQQEREEARKGGKGPFVY | soluble
9 | SMAPWGKRLAGVRGVLLDISGVLYDSGAGGGTAIAGSVEAVARLKRSRLKVRFCTNESAASRAELVGQLQRLGFDISEQEVTAPAPAACQILKERGLRPYLLIHDGVRSEFDQIDTSNPNCVVIADAGESFSYQNMNNAFQVLMELEKPVLISLGKGRYYAATSGLMLDVGPYMKALEYACGIKAEVVGKPSPEFFKSALQAIGVEAHQAVMIGDDIVGDVGGAQRCGMRALQVRTGKFRPSDEHHPEVKADGYVDNLAEAVDLLLQHADK | soluble
10 | MSAGQRKEQKLIPVERRQIILEMVAEKGIVSIAELTDRINVSHMTIRRDLQKLEQQGAVVLVSGGVQSPGRVAHEPSHQVKTALAMTQKAAIGKLAASLVLPGSCIYLDAGTTTLAIAQHLIHMESLTVVTNDFVIANYLLDNSNCTIIHTGGAVCRENRSCVGEAAATMLCSLMIDQAFISASSWSVRGISTPAEDKVTVKRAIASASRQRVLVCDATKYGQVATWLALPLSEFDQIITDDGLPESASRALAKQDLSLLVAKNELEHHHHHH | soluble
11 | WYCLISHGTRPKYWFDIEVYRQGYYPRCGQLRSWIARKDGIWFTRKYHSPPGHVLDWKIQ | not soluble
12 | GASIHDPISAGRYFAQRLRANPNEVFAVLFLDNRHRAISFEELFHGTINGAEVHPREVVRRALTLNAAAVIVGHNHPSGNREPSPADQMITQRLKNALDLIDVRLVDHFVIGDGAPVSFAEHGWL | not soluble
13 | MSEQITFATSDFASNPEPRCPCILLLDVSGSMNGRPINELNAGLVTFRDELLADPLALKRVELGIVTFGPVHVEQPFTSAANFFPPILFAQGDTPMGAAITKALDMVEERKREYRANGISYYRPWIFLITDGAPTDEWQAAANKVFRGEEDKRFAFFSIGVQGADMKTLAQISVRQPLPLQGLQFRELFSWLSSSLRSVSRSTPGTEVVLEAPKGWTSV | soluble
14 | MGSDKIHHHHHHMPVNIKQLAQEFDKKEIGITQGHRLCPGCGAPITVKFVMMIARHLGYEPVVGLATGCLEVSTSIYPYTAWSVPYIHNAFENVAATMSGVETAYKALKNKGKIPEDKKYAFIAFGGDGGTYDIGLQSLSGMLERGHKVLYVLYDNEGYMNTGNQRSGSTPPGSDTTTAPVGKKLPGKVQLKKNIVEIVAAHENVYAATASLSEPMDFFAKVEKALNFDGPSFLAVFSPCVRFWRVNDDKTVEISKLAVETKYWPLYEVERGVYRVTRKPRQFKPVEEFLKAQGRFRKLLSRPDAKEIVDELQEYVDRRWERLLTLEEVTKDKPIR | not soluble
15 | MGSDKIHHHHHHMTEGMNAGLAMPPAALETSGGANQVGVRAYNERLVMSLVRRHGSLSKAEIARRSGLSAQTVTVIMRVLEREKLLVRGEPVRGRVGQPSVPMRLNPDAVYSFGVKIGRRSANLVLMDFVGTIRHEVRRTYPYPMPGLLLDFIVGGISDIEGRLSVAERARIAGVGIAAPFELWSWAEETGAPSEEMDVWRETDLKADVAARIGYPVFIQNDATSACAAELVFGVGPHYPDFVYFFLGSFVGGGIVLNSSLFSGRTGTAGAVGPLPVQRRDGKTVQLLKIASIFVLENLLRDYGQDSQSLWYSPSDWVDYGEPLEIWIRDTAAALAQAIVAAASIIDFSAAVIDGGFPQWVRQRLVVAIQEAARDLDLQGVLMPEIVEGAVGHQARSVGGASLPLFSRYLLDQNVLFKELL | not soluble
16 | MGSDKIHHHHHHMKIARLNLWHVPLTSHTAYYMADGKTCDTVETVVIAVQTDTGITGWGEVCPIPHYLPAYARGVAPALTELAPVILGADPVGVGALMERVDAVLHGHPYAKSALDIALWDITGQVAGLPLHALLGGWRAADMPLYHSITCIAPDDMARIAREAQAQGITQFQVKLGASGDWQTDVERLAKVREAVGPGPLVYGDWNCGATSLEAIRVGRAVAQLDIMLEQPCATLEDCARVQRATGLPMKIDELAHDTASLLTAHRLGIMDAVALKLSKFGGLSTTRRARDLCLHLGARMCIEDTWGSDITTAALLHLGAASEPGRVLNVCDLSGYVAPRLAPDAPVRANGRIAPPEGAGLGITVDRGALGVPDLILD | not soluble
17 | MPPLPLIGMLLGTASTMIKSSSGAAAHASGASSAPSGDAAPTAPFAQTLKRNVQTQRQTNAGAGAGAPNAGNATNAATSGTANASTTSSASEPATTNAGNTKASGKPDDQDDDKNATQSASADAAAALAAAASLQAQLQARPDAQAAQAAAPQAGASDAAHPPTTLATNTAAAGDADTSALAGAQQPVGEALNAALSKLTGAGPAGAAATQRAQPAGRNDGAPTPLAANGPFDKMLAGAKAPAAPATLTDASGTNPAVSTAAQPAASGAIAALQDAADSARATLAASSAPAALQQAAPAALAANANAAAATAAPSLAPPVGTPDWTEALSQKVVFLSNAHQQSAELTLNPPDLGPLQVVLRVAENHAHALFVSQHAQVRDAVEAALPKLREAMEAGGLGLGSASVSDGGFASAQQQQTPQRQSSDGSAARRASGAPTADAALGEVSAVSSGGVTRRSVGMVDTFA | not soluble
18 | MGSDKIHHHHHHMSTILLPKTQHLVVFQEVIRSGSIGSAAKELGLTQPAVSKIINDIEDYFGVELVVRKNTGVTLTPAGQLLLSRSESITREMKNMVNEISGMSSEAVVEVSFGFPSLIGFTFMSGMINKFKEVFPKAQVSMYEAQLSSFLPAIRDGRLDFAIGTLSAEMKLQDLHVEPLFESEFVLVASKSRTCTGTTTLESLKNEQWVLPQTNMGYYSELLTTLQRNGISIENIVKTDSVVTIYNLVLNADFLTVIPCDMTSPFGSNQFITIPVEETLPVAQYAAVWSKNYRIKKAASVLVELAKEYSSYNGCRRRQLIEVG | not soluble
19 | MSLSGMELSYRRSDLIFKRPAGTSRGVLTSKPTWFVRLDIDGHGGQGEVSLIPGLSLDPEEQIGRELDLLARRLRAEEPIRLRQFLAERGGADFSDYRSVLTDIAGILDSWQVSTDGRFPALRFALEMALLDLLSGGRQEWFASDFTRGEKRIPVNGLIWMGEAAFMQEQIEAKLAEGYGCLKLKIGAIDFDKECALLAGIRESFSPQQLEIRVDANGAFSPANAPQRLKRLSQFHLHSIEQPIRQHQWSEMAALCANSPLAIALDEELIGLGAEQRSAMLDAIRPQYIILKPSLLGGFHYAGQWIELARERGIGFWITSALESNLGLAAIAQWTALYQPTMPQGLGTGQLYTNNLPSNLAVDGGLLGVSEGHHHHHH | soluble
20 | MGHHHHHHHHHSSGHIDDDDKHMLEASAKATMGQGEQDHFVLKSGHAMPAVGLGTWRAGSDTAHSVRTAITEAGYRHVDTAAEYGVEKEVGKGLKAAMEAGIDRKDLFVTSKIWCTNLAPERVRPALENTLKDLQLDYIDLYHIHWPFRLKDGAHMPPEAGEVLEFDMEGVWKEMENLVKDGLVKDIGVCNYTVTKLNRLLRSAKIPPAVCQMEMHPGWKNDKIFEACKKHGIHITAYSPLGSSEKNLAHDPVVEKVANKLNKTPGQVLIKWALQRGTSVIPKSSKDERIKENIQVFGWEIPEEDFKVLCSIKDEKRVLTGEELFVNKTHGPYRSARDVWDHEN | soluble
